Experiment [1] deals with T1, recombinant human OX40-Fc (R&D systems, 3388-OX) (human, UniProt P43489 29-216).
T1 construct: not shown: Fc part
T1 sequence: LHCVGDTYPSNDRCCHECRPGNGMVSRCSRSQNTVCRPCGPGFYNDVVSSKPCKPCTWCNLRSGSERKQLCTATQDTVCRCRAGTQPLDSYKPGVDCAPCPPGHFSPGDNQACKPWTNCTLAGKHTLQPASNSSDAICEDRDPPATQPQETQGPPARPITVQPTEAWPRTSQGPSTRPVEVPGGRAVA
Nature of the experiment: Luminex suspension array, protein coupled to microspheres, PE MFI; antibody at 10, 100 and 1000 ng/ml. On the procedure:
(§1) A number of TNFR family members were chemically coupled to Luminex® microspheres using standard NETS-ester chemistry. […] Briefly, 25 μl of each dilution was incubated in the dark (20° C., 650 rpm) with 1500 Luminex® microspheres in 5 μl assay buffer for 1 hour in 96 half-well filter plates (Millipore, MABVN1250). Luminex® microspheres were coupled with recombinant human OX40-His (SinoBiological, 10481-H08H), recombinant human OX40-Fc (R&D systems, 3388-OX), recombinant human LTBR-Fc (Acros Biosystems, LTR-H5251), recombinant human GITR-His (SinoBiological, 13643-H08H), recombinant human GITR-Fc (R&D, 689-GR), recombinant human DR6-Fc (SinoBiological, 10175-H02H), recombinant human DR3-Fc (R&D, 943-D3), recombinant human TWEAK R-Fc (SinoBiological, 10431-H01H), recombinant human CD137-His (SinoBiological, 10041-H08H), recombinant human BAFFR-Fc (R&D, 1162-BR) or anti-human IgG (F(ab)₂-specific, JIR, 105-006-097) via amine coupling with COOH bead surface. Standard curves were generated using duplicates of 25 μl of a human IgG1 standard (Sigma, I5154) with 1:3 dilution series (0.08-540 ng/ml). […] Plates were analyzed using a Luminex® 200 system (Millipore). A total of 100 beads were counted per well in a 48 μl sample volume. […]

Experiment [2] concerns the target T2, recombinant human OX40-His (SinoBiological, 10481-H08H) (human, UniProt P43489 29-216).
T2 construct: not shown: His tag
T2 sequence: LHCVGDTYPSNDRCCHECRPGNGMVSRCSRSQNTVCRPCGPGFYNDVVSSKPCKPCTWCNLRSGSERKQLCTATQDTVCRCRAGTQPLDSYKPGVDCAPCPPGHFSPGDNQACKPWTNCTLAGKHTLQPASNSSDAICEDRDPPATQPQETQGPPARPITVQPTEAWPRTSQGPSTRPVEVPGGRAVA
The description is as above. On the procedure: as §1

For experiment [3], the target named is T3, human OX40 expressed on cells (human, UniProt P43489 29-277).
T3 construct: It was expressed ectopically on Jurkat cells or induced on Hut102 cells and primary T cells; also called huOX40; Jurkat-huOX40
T3 sequence: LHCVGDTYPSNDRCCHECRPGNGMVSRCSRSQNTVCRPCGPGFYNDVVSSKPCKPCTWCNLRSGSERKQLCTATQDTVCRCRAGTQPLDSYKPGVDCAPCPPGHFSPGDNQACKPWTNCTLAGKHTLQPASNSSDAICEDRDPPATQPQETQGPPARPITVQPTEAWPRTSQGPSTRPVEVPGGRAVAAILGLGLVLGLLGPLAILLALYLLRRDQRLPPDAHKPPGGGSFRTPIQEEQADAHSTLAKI
Nature of the experiment: flow cytometry, 10-point titration 0.5-10,000 ng/ml, APC anti-human kappa detection. As to the method:
Stable clones were generated via single-cell sorting (FACS ARIA Fusion). […] Samples were then washed two times and analyzed using the LSRFortessa flow cytometer (BD Biosciences). FACS plots were analyzed using a combination of FACS DIVA and WEHI Weasel software. Data were plotted with Graphpad Prism software.

In experiment [4] the target is T4, recombinant human TWEAK R-Fc (SinoBiological, 10431-H01H) (human, UniProt Q9NP84 28-80).
T4 construct: Bought construct; not shown: Fc part
In words: Luminex suspension array, protein coupled to microspheres, PE MFI. On the procedure:
(§2) A number of TNFR family members were chemically coupled to Luminex® microspheres using standard NETS-ester chemistry. […] Briefly, 25 μl of each dilution was incubated in the dark (20° C., 650 rpm) with 1500 Luminex® microspheres in 5 μl assay buffer for 1 hour in 96 half-well filter plates (Millipore, MABVN1250). Luminex® microspheres were coupled with recombinant human OX40-His (SinoBiological, 10481-H08H), recombinant human OX40-Fc (R&D systems, 3388-OX), recombinant human LTBR-Fc (Acros Biosystems, LTR-H5251), recombinant human GITR-His (SinoBiological, 13643-H08H), recombinant human GITR-Fc (R&D, 689-GR), recombinant human DR6-Fc (SinoBiological, 10175-H02H), recombinant human DR3-Fc (R&D, 943-D3), recombinant human TWEAK R-Fc (SinoBiological, 10431-H01H), recombinant human CD137-His (SinoBiological, 10041-H08H), recombinant human BAFFR-Fc (R&D, 1162-BR) or anti-human IgG (F(ab)₂-specific, JIR, 105-006-097) via amine coupling with COOH bead surface. Standard curves were generated using duplicates of 25 μl of a human IgG1 standard (Sigma, I5154) with 1:3 dilution series (0.08-540 ng/ml). Detection was carried out using 60 μl of goat anti-human IgG F(ab)₂ labeled with R-PE (2.5 μg/ml; JIR 109-116-098, AbDSerotec Rapid RPE Antibody Conjugation Kit, LNK022RPE) and another hour of incubation time (20° C., 650 rpm). Plates were analyzed using a Luminex® 200 system (Millipore). A total of 100 beads were counted per well in a 48 μl sample volume. PE MFI values were used to determine specific or non-specific binding to the recombinant proteins mentioned above.

Experiment [5] has as its target T5, recombinant human DR6-Fc (SinoBiological, 10175-H02H) (human, UniProt O75509 42-349).
T5 construct: Bought construct; not shown: Fc part
T5 sequence (looked up): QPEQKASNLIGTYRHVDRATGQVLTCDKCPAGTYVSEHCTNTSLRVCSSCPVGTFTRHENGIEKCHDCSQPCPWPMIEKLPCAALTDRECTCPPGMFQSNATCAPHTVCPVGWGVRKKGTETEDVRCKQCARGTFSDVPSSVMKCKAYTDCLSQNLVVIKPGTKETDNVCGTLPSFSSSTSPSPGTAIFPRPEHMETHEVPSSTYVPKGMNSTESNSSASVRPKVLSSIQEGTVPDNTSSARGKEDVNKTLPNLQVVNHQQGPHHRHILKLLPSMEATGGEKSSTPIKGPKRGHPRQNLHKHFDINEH
Described as above. As to the method: as §2

In experiment [6] the target is T6, recombinant human DR3-Fc (R&D, 943-D3) (human, UniProt Q93038 25-201, limits assumed).
T6 construct: Bought construct; not shown: Fc part
T6 sequence (looked up): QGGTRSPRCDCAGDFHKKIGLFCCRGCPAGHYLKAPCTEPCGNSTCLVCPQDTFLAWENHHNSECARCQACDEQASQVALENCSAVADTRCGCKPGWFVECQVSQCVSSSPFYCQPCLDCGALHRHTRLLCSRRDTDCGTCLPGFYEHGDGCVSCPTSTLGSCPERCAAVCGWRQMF
The description is as above. On the procedure: as §2

Experiment [7] deals with T7, recombinant human CD137-His (SinoBiological, 10041-H08H) (human, UniProt Q07011 24-186).
T7 construct: Bought construct; not shown: His tag
T7 sequence (Q07011 24-186 limits assumed): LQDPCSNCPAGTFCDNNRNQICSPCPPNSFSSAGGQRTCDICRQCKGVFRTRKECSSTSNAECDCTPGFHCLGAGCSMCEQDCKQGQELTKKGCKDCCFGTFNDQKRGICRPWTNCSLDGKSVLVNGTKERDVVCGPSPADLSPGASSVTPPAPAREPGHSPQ
Described as above. On the procedure:
as §2

The target in experiment [8] is T8, recombinant human BAFFR-Fc (R&D, 1162-BR) (human, UniProt Q96RJ3 7-71, limits assumed).
T8 construct: Bought construct; not shown: Fc part
T8 sequence (Q96RJ3 7-71 limits assumed): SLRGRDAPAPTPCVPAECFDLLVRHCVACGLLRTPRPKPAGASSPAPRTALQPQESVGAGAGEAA
The experiment is described as above. As to the method: as §2

Experiment [9] has as its target T9, recombinant human GITR-Fc (R&D, 689-GR) (human, UniProt Q9Y5U5 26-161).
T9 construct: Bought construct; not shown: Fc part
T9 sequence (looked up): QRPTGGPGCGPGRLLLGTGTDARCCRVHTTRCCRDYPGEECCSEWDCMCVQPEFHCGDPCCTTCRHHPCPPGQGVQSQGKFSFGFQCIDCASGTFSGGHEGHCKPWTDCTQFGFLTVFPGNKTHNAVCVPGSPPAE
Described as above. On the procedure: as §2

Experiment [10] addresses T10, recombinant human LTBR-Fc (Acros Biosystems, LTR-H5251) (human, UniProt P36941 28-227, limits assumed).
T10 construct: Bought construct; not shown: Fc part
The description is as above. As to the method: as §2

Experiment [11] has as its target T11, recombinant human GITR-His (SinoBiological, 13643-H08H) (human, UniProt Q9Y5U5 26-161).
T11 construct: Bought construct; not shown: His tag
T11 sequence (looked up): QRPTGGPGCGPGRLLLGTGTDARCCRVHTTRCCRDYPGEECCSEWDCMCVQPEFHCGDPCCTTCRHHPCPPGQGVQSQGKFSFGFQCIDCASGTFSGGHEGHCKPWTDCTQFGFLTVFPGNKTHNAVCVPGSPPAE
The experiment is described as above. As to the method: as §2

1 molecule from patent publication US20200079862A1 (AGENUS, published 2020) can be followed below.

T10 sequence (P36941 28-227 limits assumed): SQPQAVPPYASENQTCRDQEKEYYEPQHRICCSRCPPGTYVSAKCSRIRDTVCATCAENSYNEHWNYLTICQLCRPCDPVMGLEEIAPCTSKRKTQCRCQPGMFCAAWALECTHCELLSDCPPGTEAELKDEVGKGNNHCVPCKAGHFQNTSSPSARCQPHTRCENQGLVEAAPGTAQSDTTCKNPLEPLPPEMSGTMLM

B1: pab2049 (IgG1) (antibody, V domains shown)
VH: EVQLVESGGGLVQPGGSLKLSCAASGFTFSGSAMHWVRQASGKGLEWVGRIRSKANSYATAYAASVKGRFTISRDDSKNTAYLQMNSLKTEDTAVYYCTSGIYDSSGYDYWGQGTLVTVSS
VL: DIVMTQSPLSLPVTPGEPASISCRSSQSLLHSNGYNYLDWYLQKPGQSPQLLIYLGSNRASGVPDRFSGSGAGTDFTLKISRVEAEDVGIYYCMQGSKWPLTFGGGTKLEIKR
notes: Human IgG1; also called anti-OX40 antibody pab2049 (IgG1)
In the case of B1, the binding result in experiment [1] is “binds”; in experiment [2], “binds”; in experiment [3], “binds”; in experiment [4], “no binding (tested: 10 ng/ml, 100 ng/ml and 1000 ng/ml)”; in experiment [5], “no binding (tested: 10 ng/ml, 100 ng/ml and 1000 ng/ml)”; in experiment [6], “no binding (tested: 10 ng/ml, 100 ng/ml and 1000 ng/ml)”. The binding result in [7] is “no binding (tested: 10 ng/ml, 100 ng/ml and 1000 ng/ml)”; in experiment [8] it was “no binding (tested: 10 ng/ml, 100 ng/ml and 1000 ng/ml)”; in experiment [9] it was “no binding (tested: 10 ng/ml, 100 ng/ml and 1000 ng/ml)”; in experiment [10], “no binding (tested: 10 ng/ml, 100 ng/ml and 1000 ng/ml)”; in experiment [11], “no binding (tested: 10 ng/ml, 100 ng/ml and 1000 ng/ml)”.
